Results: the supplement of paper PMC9112550, “Optimization of the antimicrobial peptide Bac7 by deep mutational scanning” (BMC Biology, 2022)

Tested on: Escherichia coli TOP10
Experiment: shrunken log2 fold change of peptide-encoding DNA abundance (4.5 h post-induction vs induction); higher = less antimicrobial activity (less host growth inhibition)
Conditions: time post-induction: 4.5 h; library: site-saturation at positions 5, 18, 19, 20
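Also: peptides expressed intracellularly from a pBAD plasmid library in pooled LB shake-flask culture, induced with 0.3% L-arabinose, DNA abundance read by NGS, three biological replicates, DESeq2 with apeglm shrinkage.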

Sequence	shrunken log2 fold change
RRIRTRPPRLPRPRPRPFIGPRP	-0.353
RRIRTRPPRLPRPRPRPFIPPRP	-0.312
RRIRTRPPRLPRPRPRPFKQPRP	0.0538
RRIRTRPPRLPRPRPRPFLNPRP	-0.183
RRIRTRPPRLPRPRPRPFNEPRP	-0.311
RRIRTRPPRLPRPRPRPFNHPRP	0.00676
RRIRTRPPRLPRPRPRPFPCPRP	-0.197
RRIRTRPPRLPRPRPRPFSTPRP	-0.0812
RRIRTRPPRLPRPRPRPFTEPRP	-0.21
RRIRTRPPRLPRPRPRPFVVPRP	-0.266
RRIRTRPPRLPRPRPRPFWPPRP	0.178
RRIRTRPPRLPRPRPRPFYRPRP	-0.189
RRIRTRPPRLPRPRPRPGAGPRP	0.286
RRIRTRPPRLPRPRPRPGAKPRP	0.524
RRIRTRPPRLPRPRPRPGANPRP	-0.124
RRIRTRPPRLPRPRPRPGASPRP	0.156
RRIRTRPPRLPRPRPRPGAVPRP	0.104
RRIRTRPPRLPRPRPRPGAWPRP	0.12
RRIRTRPPRLPRPRPRPGAYPRP	-0.143
RRIRTRPPRLPRPRPRPGCCPRP	0.334
RRIRTRPPRLPRPRPRPGCQPRP	-0.0154
RRIRTRPPRLPRPRPRPGDHPRP	0.00667
RRIRTRPPRLPRPRPRPGDMPRP	1.73
RRIRTRPPRLPRPRPRPGDPPRP	0.106
RRIRTRPPRLPRPRPRPGDSPRP	0.152

Sequence	shrunken log2 fold change
RRIRTRPPRLPRPRPRPGDWPRP	0.73
RRIRTRPPRLPRPRPRPGFGPRP	0.263
RRIRTRPPRLPRPRPRPGFIPRP	-0.585
RRIRTRPPRLPRPRPRPGHSPRP	0.0834
RRIRTRPPRLPRPRPRPGIIPRP	0.0136
RRIRTRPPRLPRPRPRPGIWPRP	-0.0153
RRIRTRPPRLPRPRPRPGLFPRP	0.458
RRIRTRPPRLPRPRPRPGLGPRP	0.466
RRIRTRPPRLPRPRPRPGLMPRP	0.0921
RRIRTRPPRLPRPRPRPGMAPRP	-0.0805
RRIRTRPPRLPRPRPRPGMLPRP	-0.141
RRIRTRPPRLPRPRPRPGMQPRP	-0.0474
RRIRTRPPRLPRPRPRPGNSPRP	-0.169
RRIRTRPPRLPRPRPRPGPEPRP	0.0888
RRIRTRPPRLPRPRPRPGPKPRP	0.152
RRIRTRPPRLPRPRPRPGPPPRP	0.404
RRIRTRPPRLPRPRPRPGQHPRP	0.351
RRIRTRPPRLPRPRPRPGRSPRP	0.194
RRIRTRPPRLPRPRPRPGSMPRP	-0.199
RRIRTRPPRLPRPRPRPGSRPRP	0.365
RRIRTRPPRLPRPRPRPGWIPRP	-0.154
RRIRTRPPRLPRPRPRPGWKPRP	0.262
RRIRTRPPRLPRPRPRPHAEPRP	0.17
RRIRTRPPRLPRPRPRPHASPRP	-0.033
RRIRTRPPRLPRPRPRPHCCPRP	0.142

Sequence	shrunken log2 fold change
RRIRTRPPRLPRPRPRPHCFPRP	-0.102
RRIRTRPPRLPRPRPRPHCYPRP	-0.136
RRIRTRPPRLPRPRPRPHEHPRP	-0.0451
RRIRTRPPRLPRPRPRPHGTPRP	0.219
RRIRTRPPRLPRPRPRPHKGPRP	0.0731
RRIRTRPPRLPRPRPRPHNAPRP	-0.391
RRIRTRPPRLPRPRPRPHNPPRP	-0.385
RRIRTRPPRLPRPRPRPHNRPRP	-0.0489
RRIRTRPPRLPRPRPRPHNWPRP	0.0661
RRIRTRPPRLPRPRPRPHPLPRP	-0.503
RRIRTRPPRLPRPRPRPHQCPRP	0.021
RRIRTRPPRLPRPRPRPHQHPRP	-0.415
RRIRTRPPRLPRPRPRPHQSPRP	-0.179
RRIRTRPPRLPRPRPRPHQTPRP	-0.0425
RRIRTRPPRLPRPRPRPHQYPRP	-0.259
RRIRTRPPRLPRPRPRPHRPPRP	0.0943
RRIRTRPPRLPRPRPRPHSTPRP	-0.374
RRIRTRPPRLPRPRPRPHTEPRP	-0.215
RRIRTRPPRLPRPRPRPHTIPRP	-0.314
RRIRTRPPRLPRPRPRPHTTPRP	-0.166
RRIRTRPPRLPRPRPRPHWDPRP	-0.245
RRIRTRPPRLPRPRPRPICDPRP	-0.168
RRIRTRPPRLPRPRPRPICIPRP	-0.196
RRIRTRPPRLPRPRPRPIDIPRP	0.0364
RRIRTRPPRLPRPRPRPIDYPRP	-0.231

Sequence	shrunken log2 fold change
RRIRTRPPRLPRPRPRPIEPPRP	-0.0864
RRIRTRPPRLPRPRPRPIERPRP	0.107
RRIRTRPPRLPRPRPRPIGRPRP	-0.159
RRIRTRPPRLPRPRPRPIHSPRP	-0.191
RRIRTRPPRLPRPRPRPIHVPRP	0.00961
RRIRTRPPRLPRPRPRPIKGPRP	-0.331
RRIRTRPPRLPRPRPRPIKKPRP	-0.0742
RRIRTRPPRLPRPRPRPIKMPRP	-0.0667
RRIRTRPPRLPRPRPRPIKTPRP	-0.0452
RRIRTRPPRLPRPRPRPILEPRP	-0.0122
RRIRTRPPRLPRPRPRPILLPRP	-0.658
RRIRTRPPRLPRPRPRPIMVPRP	-0.198
RRIRTRPPRLPRPRPRPINQPRP	-0.274
RRIRTRPPRLPRPRPRPIPEPRP	-0.0588
RRIRTRPPRLPRPRPRPIQCPRP	-0.521
RRIRTRPPRLPRPRPRPIRNPRP	-0.324
RRIRTRPPRLPRPRPRPITKPRP	0.0123
RRIRTRPPRLPRPRPRPITLPRP	-0.162
RRIRTRPPRLPRPRPRPIWQPRP	0.168
RRIRTRPPRLPRPRPRPIWSPRP	0.0914
RRIRTRPPRLPRPRPRPKCMPRP	-0.134
RRIRTRPPRLPRPRPRPKCWPRP	1.72
RRIRTRPPRLPRPRPRPKDHPRP	-0.156
RRIRTRPPRLPRPRPRPKDRPRP	-0.196
RRIRTRPPRLPRPRPRPKDYPRP	-0.115

Sequence	shrunken log2 fold change
RRIRTRPPRLPRPRPRPKEMPRP	-0.0567
RRIRTRPPRLPRPRPRPKFMPRP	-0.0326
RRIRTRPPRLPRPRPRPKFTPRP	-0.0912
RRIRTRPPRLPRPRPRPKFWPRP	0.318
RRIRTRPPRLPRPRPRPKHTPRP	-0.0343
RRIRTRPPRLPRPRPRPKIIPRP	-0.211
RRIRTRPPRLPRPRPRPKIRPRP	0.0372
RRIRTRPPRLPRPRPRPKLCPRP	0.0416
RRIRTRPPRLPRPRPRPKLVPRP	0.016
RRIRTRPPRLPRPRPRPKMAPRP	0.129
RRIRTRPPRLPRPRPRPKMHPRP	-0.0762
RRIRTRPPRLPRPRPRPKNTPRP	-0.508
RRIRTRPPRLPRPRPRPKNVPRP	0.0149
RRIRTRPPRLPRPRPRPKPLPRP	-0.0401
RRIRTRPPRLPRPRPRPKPSPRP	0.335
RRIRTRPPRLPRPRPRPKQPPRP	0.0517
RRIRTRPPRLPRPRPRPKWTPRP	0.0189
RRIRTRPPRLPRPRPRPKYAPRP	-0.495
RRIRTRPPRLPRPRPRPKYFPRP	-0.444
RRIRTRPPRLPRPRPRPLAVPRP	-0.0185
RRIRTRPPRLPRPRPRPLAWPRP	0.195
RRIRTRPPRLPRPRPRPLCPPRP	-0.165
RRIRTRPPRLPRPRPRPLDEPRP	0.23
RRIRTRPPRLPRPRPRPLDHPRP	-0.186
RRIRTRPPRLPRPRPRPLFIPRP	-0.746

Sequence	shrunken log2 fold change
RRIRTRPPRLPRPRPRPLFRPRP	-0.353
RRIRTRPPRLPRPRPRPLGFPRP	0.046
RRIRTRPPRLPRPRPRPLGRPRP	2.94
RRIRTRPPRLPRPRPRPLIPPRP	-0.106
RRIRTRPPRLPRPRPRPLKTPRP	-0.0866
RRIRTRPPRLPRPRPRPLMKPRP	-0.26
RRIRTRPPRLPRPRPRPLMRPRP	0.216
RRIRTRPPRLPRPRPRPLNEPRP	-0.0228
RRIRTRPPRLPRPRPRPLPGPRP	0.164
RRIRTRPPRLPRPRPRPLPLPRP	-0.107
RRIRTRPPRLPRPRPRPLPVPRP	-0.103
RRIRTRPPRLPRPRPRPLSQPRP	-0.0906
RRIRTRPPRLPRPRPRPLWVPRP	0.0735
RRIRTRPPRLPRPRPRPLYHPRP	-0.48
RRIRTRPPRLPRPRPRPMARPRP	0.193
RRIRTRPPRLPRPRPRPMCAPRP	-0.0676
RRIRTRPPRLPRPRPRPMCWPRP	-0.0846
RRIRTRPPRLPRPRPRPMDFPRP	0.0159
RRIRTRPPRLPRPRPRPMEAPRP	-0.0389
RRIRTRPPRLPRPRPRPMELPRP	-0.172
RRIRTRPPRLPRPRPRPMFHPRP	-0.52
RRIRTRPPRLPRPRPRPMGRPRP	0.217
RRIRTRPPRLPRPRPRPMGTPRP	-0.0546
RRIRTRPPRLPRPRPRPMHHPRP	-0.00407
RRIRTRPPRLPRPRPRPMINPRP	-0.239
